Test results taken from paper PMC3717276, “Optimization and validation of mitochondria-based functional assay as a useful tool to identify BH3-like molecules selectively targeting anti-apoptotic Bcl-2 proteins” (BMC Biotechnology, 2013).
Ends that are not written are not given here. * marks the point of attachment. 6FAM = O=C1OC2(c3ccc(O)cc3Oc3cc(O)ccc32)c2cc(C(=O)*)ccc21

B1: Noxa BH3 peptide (residues 18-43) (peptide)
peptide: PAELEVECATQLRRFGDKLNFRQKLL
notes: Noxa BH3 peptide, residues 18-43 of Swiss-Prot Q13794; source: provided by Dr. Peter P Roller (National Cancer Institute)
B2: Bid BH3 peptide (residues 79-99) (peptide)
peptide: QEDIIRNIARHLAQVGDSMDR
notes: Bid BH3 peptide, residues 79-99 of Swiss-Prot P55957; also called unlabeled Bid BH3 peptide; source: provided by Dr. Peter P Roller (National Cancer Institute)
B3: Bad BH3 peptide (residues 103-128) (peptide)
peptide: NLWAAQRYGRELRRMSDEFVDSFKKG
notes: Bad BH3 peptide, residues 103-128 of GenBank CAG46757; source: provided by Dr. Peter P Roller (National Cancer Institute)
B4: Human Mcl-1 protein, residues 171-327, N-terminal 8xHis tag (domain or fragment, UniProt Q07820-1 171-327, looked up)
chain: EDELYRQSLEIISRYLREQATGAKDTKPMGRSGATSRKALETLRRVGDGVQRNHETAFQGMLRKLDIKNEDDVKSLSRVMIHVFSDGVTNWGRIVTLISFGAFVAKHLKTINQESCIEPLAESITDVLVRTKRDWLVKQRGWDGFVEFFHVEDLEGG
notes: human Mcl-1 fragment (NM_021960), residues 171-327; Cloned into the pHis-TEV vector; source: E. coli BL21(DE3), purified (Ni-NTA, Source Q15)
B5: 21-residue Bid BH3 peptide labeled at the N-terminus with 6-carboxyfluorescein succinimidyl ester (FAM-Bid) (peptide)
peptide: 6FAM-QEDIIRNIARHLAQVGDSMDR
notes: Bid BH3 peptide, residues 79-99 of Swiss-Prot P55957; also called Flu-Bid; source: synthetic peptide

Columns and labels:
Conditions in all cases: both partners purified
[1] = molecular target: T1, Human Bcl-xL protein with internal deletion of 45-85 and C-terminal truncation of 212-233, N-terminal 8xHis … (human, UniProt Q07817-1 1-211, internal deletion of 45–85); assay: fluorescence polarisation; competition: 30 nM Bcl-xL and 2.5 nM FAM-Bak, tested BH3 peptide added; 50 mM Tris-Bis, pH 7.4, 0.01% bovine gamma globulin; Ki calculated from IC50
T1 construct: human Bcl-xL (NM_138578), internal deletion of residues 45-85 and C-terminal truncation of 212-233; Cloned into the pHis-TEV vector (a modified pET vector); source: E. coli BL21(DE3), purified (Ni-NTA, Superdex75)

[2] = molecular target: T1, Human Bcl-xL protein with internal …; assay: SPR; competitive solution binding: protein (20 nM) pre-incubated with tested BH3 peptide for at least 30 min, injected over immobilised biotin-Bim BH3 peptide; response at 30 s of dissociation
[3] = molecular target: B4; assay: as above
[4] = molecular target: B4; assay: fluorescence polarisation; competition: Mcl-1 (20 nM) or Bcl-2 (40 nM) pre-incubated with FAM-Bid (2 nM and 2.5 nM), tested BH3 peptide added, 2-3 h; 100 mM potassium phosphate, pH 7.5, 100 ug/ml bovine gamma globulin, 0.02% sodium azide; Ki calculated from IC50
[5] = molecular target: T2, Biotin-labeled Bim BH3 peptide (residues 81-106) (biotin label, position not stated); assay: SPR; biotin-labeled Bim BH3 peptide immobilised on a streptavidin SA chip; proteins injected at different concentrations in HBS-EP (10 mM HEPES pH 7.4, 150 mM NaCl, 3 mM EDTA, 0.005% P20)
T2 construct: Bim BH3 peptide, residues 81-106 of Swiss-Prot O43521; also called immobilized Bim BH3 peptide; Bim peptide

[6] = molecular target: B4; assay: fluorescence polarisation; saturation experiments with FAM-Bid and Mcl-1 or Bcl-2 protein; assay buffer 100 mM potassium phosphate, pH 7.5, 100 ug/ml bovine gamma globulin, 0.02% sodium azide

T1 sequence (Q07817 other isoform, or with tags, fused parts or gaps internal deletion of 45–85 | internal deletion of 45–85): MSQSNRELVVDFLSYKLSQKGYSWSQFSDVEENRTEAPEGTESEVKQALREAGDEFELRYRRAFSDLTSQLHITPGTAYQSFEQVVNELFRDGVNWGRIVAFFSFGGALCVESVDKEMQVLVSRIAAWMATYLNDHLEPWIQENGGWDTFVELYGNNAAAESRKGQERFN
T2 sequence (peptide, as listed by the source): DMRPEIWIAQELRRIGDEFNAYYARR

Row | Ki [1] [nM] | IC50 [2] [nM] | IC50 [3] [nM] | Ki [4] [nM] | Kd [5] [nM] | Kd [6] [nM] | Binder
1 | > 10000 | > 30000 | 51 | 97 |  |  | B1
2 |  |  | 60.1 | 6 |  |  | B2
3 | 3.2 | 8.64 | > 30000 | > 20000 |  |  | B3
4 |  |  |  |  | 0.2 |  | B4
5 |  |  |  |  |  | 2.8 | B5
